Laboratory results from patent US20060257938A1, “Method of screening for drugs that block ligand binding to a lipid binding protein” (priority 2005, published 2006).

Assays:
Format in all cases: binding
[1] = Probe fluorescence ratio response to stearic acid relative to ADIFAB2; settings: Table 5
Summary of the method: (§1)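 Each fatty acid's response was expressed relative to ADIFAB2, the rI-FABP-L72A probe, as ΔR/ΔRreference. ΔR is the change in the background-corrected two-wavelength intensity ratio R=Fλ1/Fλ2 from its analyte-free baseline R0. Emission was read near about 420-480 nm for unbound and about 495-580 nm for FFA-bound probe.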

[2] = Probe fluorescence ratio response to palmitic acid relative to ADIFAB2; settings: Table 5
Summary of the method: as §1

[3] = Probe fluorescence ratio response to oleic acid relative to ADIFAB2; settings: Table 5
Summary of the method: as §1

[4] = Probe fluorescence ratio response to arachidonic acid relative to ADIFAB2; settings: Table 5; Arachidonic acid
Summary of the method: as §1

[5] = Probe fluorescence ratio response to palmitoleic acid relative to ADIFAB2; settings: Table 5
Summary of the method: as §1

[6] = Probe fluorescence ratio response to linoleic acid relative to ADIFAB2; settings: Table 5
Summary of the method: as §1

[7] = Probe fluorescence ratio response to linolenic acid relative to ADIFAB2; settings: Table 5
Summary of the method: as §1

Row | Molecule | ΔR/DRAΔ2 SA [1] | ΔR/DRAΔ2 PA [2] | ΔR/DRAΔ2 OA [3] | ΔR/DRAΔ2 AA [4] | ΔR/DRAΔ2 POA [5] | ΔR/DRAΔ2 LA [6] | ΔR/DRAΔ2 LNA [7]
1 | L2P8B8: FABP probe, substitution A73F vs SEQ ID NO: 2 (protein, listed as Rattus norvegicus, PEPTIDE (1)...(131) wild-type rat intestinal fatty acid binding protein) AFDGTWKVDRNENYEKFMEKMGINVVKRKLGAHDNLKLTITQEGNKFTVKESSNFRNIDVVFELGVDFAYSLFDGTELTGTWTMEGNKLVGKFKRVDNGKELIAVREISGNELIQTYTYEGVEAKRIFKKE | 0.4 | 1.1 | 0.6 | 1.1 | 2.4 | 1.2 | 1.8
2 | L2P16A3: FABP probe, substitutions M18I G31L A73G vs SEQ ID NO: 2 (protein, listed as Rattus norvegicus, PEPTIDE (1)...(131) wild-type rat intestinal fatty acid binding protein) AFDGTWKVDRNENYEKFIEKMGINVVKRKLLAHDNLKLTITQEGNKFTVKESSNFRNIDVVFELGVDFAYSLGDGTELTGTWTMEGNKLVGKFKRVDNGKELIAVREISGNELIQTYTYEGVEAKRIFKKE | 0.3 | 1.1 | 0.6 | 1.0 | 1.4 | 1.1 | 1.5
3 | L2P7F4: FABP probe, substitutions M18V G31V A73I vs SEQ ID NO: 2 (protein, listed as Rattus norvegicus, PEPTIDE (1)...(131) wild-type rat intestinal fatty acid binding protein) AFDGTWKVDRNENYEKFVEKMGINVVKRKLVAHDNLKLTITQEGNKFTVKESSNFRNIDVVFELGVDFAYSLIDGTELTGTWTMEGNKLVGKFKRVDNGKELIAVREISGNELIQTYTYEGVEAKRIFKKE | 0.3 | 1.3 | 0.6 | 0.8 | 1.3 | 1.1 | 1.5
4 | L2P21G3: FABP probe, substitutions M18I G31M F55M vs SEQ ID NO: 2 (protein, listed as Rattus norvegicus, PEPTIDE (1)...(131) wild-type rat intestinal fatty acid binding protein) AFDGTWKVDRNENYEKFIEKMGINVVKRKLMAHDNLKLTITQEGNKFTVKESSNMRNIDVVFELGVDFAYSLADGTELTGTWTMEGNKLVGKFKRVDNGKELIAVREISGNELIQTYTYEGVEAKRIFKKE | 0.3 | 1.1 | 0.6 | 1.0 | 1.4 | 1.1 | 1.4
5 | L2P23G7: FABP probe, substitutions M18V G31F F55L vs SEQ ID NO: 2 (protein, listed as Rattus norvegicus, PEPTIDE (1)...(131) wild-type rat intestinal fatty acid binding protein) AFDGTWKVDRNENYEKFVEKMGINVVKRKLFAHDNLKLTITQEGNKFTVKESSNLRNIDVVFELGVDFAYSLADGTELTGTWTMEGNKLVGKFKRVDNGKELIAVREISGNELIQTYTYEGVEAKRIFKKE | 0.4 | 1.0 | 0.6 | 0.9 | 1.4 | 1.0 | 1.2
